# Assay results: the supplement of paper PMC9732359
# ± gives the uncertainty stated by the source.
# Assay: protein stability index of a GFP-peptide fusion (yeast GPS) (PSI 1-4); higher = more stable; sorted into four equal gates, so the index is relative within each strain
# How it was run: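 Plasmids in a pooled yeast library fused tiled 17-residue yeast protein peptides downstream of GFP and also expressed Cherry. Mid-log cultures grown without leucine were sorted into four equal gates by GFP/Cherry fluorescence ratio. Each gate's plasmids were PCR-amplified and Illumina-sequenced, and reads were matched to strains by barcodes. The protein stability index is derived by multiplying each gate's read frequency by its gate number and summing the results.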
Sequence,protein stability index (pdr5∆),protein stability index (san1∆),protein stability index (ubr1∆),protein stability index (doa10∆)
ELEMIGGTNEDDFTDAI [YCS4],3.2 ± 0.18,3.39 ± 0.069,3.7 ± 0.19,
NSSNLSYNNTGISDDEN [RRP4],2.87 ± 0.064,2.87 ± 0.049,2.79 ± 0.06,2.53 ± 0.07
AEYAQLLAKRLSERKAE [RPS6A],2.11 ± 0.048,2.16 ± 0.082,2.28 ± 0.038,2.41 ± 0.051
SYQKAWDLLQSGSQNIS [RPN12],1.11 ± 0.084,1.2 ± 0.13,1.08 ± 0.14,1.18 ± 0.096
SPLNTTTKILGDKILGN [YML103C/NUP188],2.63 ± 0.049,2.45 ± 0.059,2.12 ± 0.028,2.33 ± 0.055
NAANVPVENIWADIFAK [RPP1A],2.51 ± 0.11,2.48 ± 0.1,2.34 ± 0.081,2.2 ± 0.083
LLVVIFKKTLRSRISSP [SRB4],1.66 ± 0.094,1.77 ± 0.13,1.95 ± 0.11,1.53 ± 0.085
PITASTSRVFAKIISKA [YML103C/NUP188],3.02 ± 0.14,2.53 ± 0.21,,
KYMVKGGLSGEESIKIY [UBP6],2.47 ± 0.1,2.36 ± 0.093,2.67 ± 0.07,2.32 ± 0.13
HHFTCEITGTSCLTFFQ [ITC1],2.2 ± 0.057,2.04 ± 0.078,2.07 ± 0.047,1.9 ± 0.05
LVISLAATNETFENINS [IRR1],2.4 ± 0.13,1.9 ± 0.095,,2.07 ± 0.11
LAQTLKLWRKIARLYSC [RRI2],1.21 ± 0.058,1.34 ± 0.096,1.26 ± 0.053,1.2 ± 0.07
SPEESKARSPGIAKPNA [SIR4],3.42 ± 0.09,3.09 ± 0.091,3.38 ± 0.066,3.48 ± 0.075
PQGSTTNGGLFGSGTQN [YGR119C/NUP57],3.27 ± 0.058,3.3 ± 0.042,3.015 ± 0.029,3.12 ± 0.073
KNGVIPEESKGSFKYIT [SWP82],3.09 ± 0.067,2.96 ± 0.047,3.18 ± 0.052,3.03 ± 0.05
FDEFMNVVIDEAVEIPV [SME1],3.19 ± 0.066,2.94 ± 0.071,2.9 ± 0.045,2.86 ± 0.056
SFFIASQLQEQFNKILP [FAS1],3.13 ± 0.15,2.54 ± 0.081,2.77 ± 0.07,2.69 ± 0.15
FESLYNSNDSVFVGSGK [BRR2],3.18 ± 0.11,2.97 ± 0.13,3.15 ± 0.11,3.24 ± 0.098
KLKHMVLDKMHARARGP [RET1],2.84 ± 0.084,2.47 ± 0.067,2.65 ± 0.06,2.69 ± 0.094
KVVKTPGGILRAQHVKK [RPL34A],2.83 ± 0.077,2.9 ± 0.064,2.71 ± 0.063,2.76 ± 0.074
VRSFSKALDELKPEIEK [LRP1],3.39 ± 0.074,3.31 ± 0.052,3.22 ± 0.064,3.39 ± 0.088
GISDMCRLFFTELASKD [YCS4],2.4 ± 0.087,2.18 ± 0.1,2.61 ± 0.078,2.37 ± 0.085
FAEENITHKLTKNDAGS [BRR2],3.22 ± 0.07,2.88 ± 0.055,3.46 ± 0.1,3.26 ± 0.084
IIKDYVLDIVPGSSITE [SRB4],2.58 ± 0.19,,3.2 ± 0.19,
VDIDDPDMMVDSFTMPN [SNF2],2.86 ± 0.094,2.71 ± 0.085,3.15 ± 0.089,3.27 ± 0.11
EQTCVKLLDSGCENPAD [SRP72],3.4 ± 0.085,2.91 ± 0.092,3.46 ± 0.073,3.26 ± 0.066

Sequence,protein stability index (pdr5∆),protein stability index (san1∆),protein stability index (ubr1∆),protein stability index (doa10∆)
ILQQRSKINSTELLDYA [MED4],2.61 ± 0.081,2.44 ± 0.054,2.97 ± 0.11,2.84 ± 0.086
AFAFCIPVYCFSHPAHQ [YCG1],1.81 ± 0.044,1.76 ± 0.059,1.81 ± 0.045,1.64 ± 0.045
SPTPIQRITIPNVCNMK [PRP28],2.16 ± 0.063,2.04 ± 0.068,2.09 ± 0.057,1.99 ± 0.074
NFHNSKKRMNSNQERCH [RRI1],2.51 ± 0.057,2.83 ± 0.071,2.99 ± 0.07,2.51 ± 0.062
IDMLPMLLGTDLCSLKP [DIS3],2.71 ± 0.065,2.69 ± 0.07,2.45 ± 0.057,2.74 ± 0.066
VSLQNFSSSVSLSYMAF [RRP40],1.64 ± 0.041,1.76 ± 0.074,1.83 ± 0.04,2.22 ± 0.047
NDIDDLDMELAELDPSL [SEC65],3.23 ± 0.089,3.08 ± 0.077,3.03 ± 0.073,3.34 ± 0.15
NPDDLMKAVRKVAEVKK [RPT4],3.4 ± 0.25,,,
LLTCYELEKKYHGNECE [SRB8],3 ± 0.061,3.3 ± 0.068,3.21 ± 0.055,2.71 ± 0.082
LESSITDAGVLALKLEL [YJL039C/NUP192],1.48 ± 0.061,1.3 ± 0.13,1.57 ± 0.085,1.57 ± 0.06
VAFLDNDLGKFIPNKQL [RPN7],3.02 ± 0.17,2.83 ± 0.26,2.88 ± 0.095,3.34 ± 0.17
LHIHGSSNPLGITGNLD [COB],2.91 ± 0.078,2.7 ± 0.05,2.66 ± 0.054,2.92 ± 0.087
KNNNNANNNGSNLQRAQ [GAL11],,3.28 ± 0.14,3.02 ± 0.11,3.38 ± 0.13
PQGRQSTTFADCPVVPA [RPC40],2.92 ± 0.078,2.49 ± 0.1,2.87 ± 0.059,2.89 ± 0.067
TKIIMATNRPDTLDPAL [RPT4],3 ± 0.063,2.9 ± 0.054,3.12 ± 0.1,2.98 ± 0.065
LEKKGFSEVYEYNRLKV [LIN1],3.18 ± 0.25,3.28 ± 0.1,3.22 ± 0.12,3.34 ± 0.16
IKNVQDLLILTRSIKEK [SRB6],1.31 ± 0.13,,1.76 ± 0.2,1.34 ± 0.11
VSETPKRIKGLEFSALS [RPO31],2.94 ± 0.12,3.01 ± 0.086,2.97 ± 0.1,3.01 ± 0.12
HNMLNLLIHRKGLTYLH [PRP8],1.45 ± 0.038,1.6 ± 0.1,1.66 ± 0.049,1.33 ± 0.08
EKKGIVQASVTSSTHER [RET1],3.1 ± 0.23,3.45 ± 0.15,3.24 ± 0.11,3.28 ± 0.19
SHFVSAVSTIASISLAI [RPP0],1.37 ± 0.073,1.21 ± 0.13,1.11 ± 0.066,1.81 ± 0.073
DSNKTLLHNHLKSIESL [SMC2],2.44 ± 0.095,1.49 ± 0.22,2.78 ± 0.11,1.87 ± 0.089
LHPQLHEVQYQESSSTL [SIN4],2.5 ± 0.041,2.41 ± 0.07,2.3 ± 0.035,2.28 ± 0.049
DTCAVSFDAVSDSIELL [YJR042W/NUP85],3.46 ± 0.1,2.51 ± 0.25,2.65 ± 0.15,3.04 ± 0.12
IAHNISAKNRVVILARA [RPL32],1.71 ± 0.058,1.76 ± 0.085,1.52 ± 0.043,1.66 ± 0.043
GDFGGWFCPCHGSHYDI [RIP1],3.11 ± 0.078,3 ± 0.058,3.18 ± 0.082,2.87 ± 0.15

Sequence,protein stability index (pdr5∆),protein stability index (san1∆),protein stability index (ubr1∆),protein stability index (doa10∆)
EQKLIDQHVINILWAIY [YCS4],2.28 ± 0.04,1.93 ± 0.053,1.68 ± 0.035,1.87 ± 0.042
SVRSLQKRIENGGNSVI [SRP68],1.82 ± 0.064,2.29 ± 0.096,1.85 ± 0.1,1.7 ± 0.085
HRSGKIVVQLNGRLNKC [RPS22A],3.52 ± 0.23,2.98 ± 0.13,3.36 ± 0.13,
SVRLQRFYQLGVDLKLK [CSN12],3.13 ± 0.23,3.01 ± 0.24,3.06 ± 0.12,3.2 ± 0.21
SLPRFSKPVLIVGQKNL [DIS3],2.42 ± 0.074,1.77 ± 0.082,1.7 ± 0.12,2.2 ± 0.089
EISLKAHCILGIGGDHA [RPC40],1.3 ± 0.16,1.28 ± 0.3,,1.16 ± 0.18
DEFIKTHEDLPKEVDGL [IRR1],3.29 ± 0.094,3.04 ± 0.078,3.21 ± 0.067,3.2 ± 0.081
AQEDVPYLLPYILEAEA [QCR7],1.79 ± 0.046,2.03 ± 0.067,1.86 ± 0.038,2.02 ± 0.048
RDYSKEILGINLANEQP [SIR4],3.04 ± 0.044,3.07 ± 0.039,3.02 ± 0.036,2.71 ± 0.048
VHDKIWCCRSGSAADTQ [PRE3],2.92 ± 0.076,2.64 ± 0.081,2.65 ± 0.048,2.59 ± 0.07
PSLRKLIESGIGTHHAG [BRR2],3.38 ± 0.28,3.11 ± 0.2,3.64 ± 0.13,3.16 ± 0.19
RSMLTVVRNMLALTTLS [YCG1],1.9 ± 0.067,2.29 ± 0.065,2.49 ± 0.063,1.91 ± 0.061
KHKKKHLKHENANDETT [RPB4],2.84 ± 0.085,2.84 ± 0.11,3.19 ± 0.074,2.92 ± 0.053
NDVTNKNINIGKHSQEQ [SIR4],2.46 ± 0.047,2.81 ± 0.045,2.5 ± 0.041,2.26 ± 0.052
GSLNATNFSPTPANNGE [SNF2],3.07 ± 0.061,2.76 ± 0.049,3.04 ± 0.051,2.93 ± 0.055
QPMISPDNSIFGDTKSE [SWI3],3.38 ± 0.087,2.94 ± 0.098,3.1 ± 0.061,3.14 ± 0.059
ALRALQENGTIFRGSLI [YDL088C/ASM4],1.68 ± 0.076,1.28 ± 0.1,1.53 ± 0.092,2.02 ± 0.11
CFKPMSLTSKRLISQSL [RIP1],2.42 ± 0.16,,2.1 ± 0.049,2.64 ± 0.24
MVGQQYSSAPLRTVKEV [RPO21],1.92 ± 0.27,,,
QNKLFYITNADDSTKFQ [SIR3],3.02 ± 0.084,3.01 ± 0.078,3.27 ± 0.067,2.96 ± 0.085
ELKTRDATNTSYKMIQL [SWP82],3.5 ± 0.078,3.16 ± 0.059,3.29 ± 0.047,3.39 ± 0.1
KMDFSSKEGQYKAKIKE [YIL149C/MLP2],3.27 ± 0.071,3.17 ± 0.063,3.16 ± 0.048,3.2 ± 0.074
KFQLKKVLCLAVAVGNV [RPL1A],1.25 ± 0.051,1.27 ± 0.09,1.15 ± 0.033,1.63 ± 0.047
PWCVKPEYLAMYGLTME [ITC1],3.03 ± 0.071,2.79 ± 0.081,2.07 ± 0.073,2.27 ± 0.065
CRVCSSHTGLVRKYDLN [RPS29B],2.33 ± 0.059,2.38 ± 0.079,1.94 ± 0.047,2.56 ± 0.058
SPSERIEPLEINIQSFK [BRR2],2.53 ± 0.046,2.55 ± 0.047,1.97 ± 0.032,2.51 ± 0.064
